The test system of assay [1] is A431, IGR-1, IGR-39 and A2058. The experiment in a line: XTT cell viability assay, controls on all cell lines. Format: cell-based, human. Conditions: for cell viability (XTT), controls: all cell lines, treated with NIR-light. On the procedure:
(§1) The human skin epidermoid carcinoma cell line A431 (ATCC: CRL-259), human embryonic kidney (HEK-293T) cell line (ATCC: CRL-11268) and the human melanoma cell line A2058 (ATCC: CRL-11147) were cultured in RPMI-1640 medium. The human melanoma cell line IGR-39 (DSMZ: ACC 239) and IGR-1 (DSMZ: ACC-236) were cultured in DEME medium. All media were supplemented with 2 mM L-glutamine, 10% (v/v) fetal bovine serum (FBS) and 100 U/mL penicillin-streptomycin; the cells were incubated at 37° C. in a 5% CO2 atm. All media and additives were purchased from Life Technologies, Darmstadt, Germany.
(§2) In addition to the in vitro imaging specificity, the phototoxic activity of scFv-SNAP-IR700 and free IR700 were also investigated using cell proliferation and cell apoptosis assays as described previously (9). Briefly, 2×10^4 cells were seeded in 96-well plates and incubated overnight at 37° C. The cells were treated with different concentrations (0, 12.5, 25, 50, 100, 200 and 400) nM of scFv-425-SNAP, IR700 or equivalent concentration of scFv-SNAP-425-IR700 for 3 h at 37° C. in the dark. Toxic control cultures were incubated with 500 μg/mL zeocin instead of the photosensitizer.
Before light irradiation, cells were washed three times with PBS and fresh phenol red free culture media were added to the cells. Light treatment was performed with a Hydrosun® Typ 750 radiator with a water-containing cuvette and an orange filter OG590, with 140 mW/cm^2, dose: 25 J/cm^2a VIS, 76 J/cm^2 wIRA, exposure time: 15 min, and a spectrum in the range of 580-1400 nm (Hydrosun Medizintechnik GmbH, Mülhelm, Germany). […]
(§3) Cell viability was measured using the cell proliferation kit II (XTT®) (Roche, Mannheim Germany) according to the manufacturer's instructions. […] Cell viability was determined colorimetrically by monitoring the reduction of XTT® to formazan at 450 nm absorbance wavelength and 630 nm reference wavelength using the ELx808 absorbance micro-plate reader (BioTek Instruments GmbH, Bad Friedrichshall, Germany).
In general terms: Formazan colour is commonly taken as a measure of viable cells.

Assay [2] relates to A431, IGR-1, IGR-39 and A2058. Put plainly: Apo-ONE Caspase-3/7 apoptosis assay, controls. In kind it is cell-based, human. To be noted: photosensitizer or fusion protein alone. How it is done: as §2
(§4) Before light irradiation, cells were washed three times with PBS and fresh phenol red free culture media were added to the cells. […]
(§5) Next it was determined whether scFv-SNAP-IR700 has the ability to induce apoptosis using the Apo-ONE® Homogeneous Caspase-3/7 assay (Promega, Mannheim, Germany). […] The activities of caspase-3 and -7 enzymes were analyzed in cell lysates by measuring the fluorescence signal at 485 nm excitation wavelength and 535 nm emission wavelength using the ELISA plate reader ELx808 (Bio-TEK, Bad Friedrichschall, Germany).

The test system of assay [3] is EGFR^+ skin carcinoma cell lines (A431, IGR1 and IGR-39). The experiment in a line: Flow cytometry binding analysis. On the set-up: species or system human. To be noted: EGFR+ skin cancer cells; 30 min on ice. On the procedure: Flow cytometry analysis was performed to determine the binding properties of labeled scFv-SNAP-tag fusion protein against skin cancer cell lines. Approximately 4×10^5 cells each of the EGFR-positive skin cancer cell lines IGR-39, IGR-1 and A431 as well as of the EGFR low expressing cell line A2058 were incubated with 0.5 μg of labeled proteins for 30 min on ice. After washing the cells twice with 1.8 mL of PBS in a conventional cell washer, fluorescence signals were detected using a FACSCalibur® device and CellQuest® software (Becton & Dickinson, Heidelberg, Germany) using a 633 nm laser source.
For orientation: A flow cytometer gives signals particle by particle.

Assay [4] deals with EGFR low expressing cell line (A2058). The experiment in a line: Confocal microscopy binding and internalization. In kind it is cell-based, human. Conditions: same conditions. On the procedure: (§6) To further monitor the targeted activity of fusion protein, Opera® High Content Screening System (PerkinElmer, Rodgau, Germany) was used to determine the binding and internalization properties of labeled fusion proteins on skin cancer cells. Cells were prepared as described for flow cytometry analysis. Binding activity was analyzed by incubating the cells with labeled fusion proteins for 30 min on ice, while receptor mediate internalization activities was monitored by incubating the cells with the labeled fusion proteins for 2 h at 37° C.

The test system of assay [5] is EGFR-expressing cell lines (A431, IGR1 and IGR-39). Put plainly: Confocal microscopy binding and internalization. Format: cell-based, human. How it is done:
as §6

Assay [6] deals with A2058 cells (EGFR low expressing). Put plainly: XTT cell viability assay after light treatment. Format: cell-based, human. Conditions: same protocol with light, up to 400 nM. How it is done: as §1
(§7) In addition to the in vitro imaging specificity, the phototoxic activity of scFv-SNAP-IR700 and free IR700 were also investigated using cell proliferation and cell apoptosis assays as described previously (9). Briefly, 2×10^4 cells were seeded in 96-well plates and incubated overnight at 37° C. […]
as §3

Assay [7] concerns EGFR-expressing skin cancer cell lines (A431, IGR-1, IGR-39). Put plainly: XTT cell viability assay, EGFR-expressing lines together. Format: cell-based, human. Conditions: with light 580-1400 nm; 0-400 nM. On the procedure: as §1, §7, §3
For assay [8], the system named is EGFR low expressing cells (A2058). Put plainly: Apo-ONE Caspase-3/7 apoptosis assay. In kind it is cell-based, human. Conditions: same conditions. How it is done:
as §2, §4, §5

Assay [9] concerns cells expressing EGFR (A431, IGR-1, IGR-39). The experiment in a line: Apo-ONE Caspase-3/7 apoptosis assay. Format: cell-based, human. To be noted: all cells expressing EGFR; with light. How it is done: as §2, §4, §5

The values that follow come from patent US11124574B2, “Specific photoimmuno-theranostics for detection and elimination of skin cancer cells” (University of Cape Town, priority 2015, dated 2021).

On to “scFv-425-SNAP-tag: unlabeled fusion protein of anti-EGFR scFv-425 (SEQ ID No. 1) and SNAP-tag (SEQ ID No. 2)”, for which the “cell viability (XTT), controls” value in [1] was “unaffected”. Also, the “caspase activities, controls” value in assay [2] was “no significant elevation of caspase activities”.

Consider `C[Si](C)(CCC[N+](CCCS(=O)(=O)[O-])(CCCS(=O)(=O)[O-])CCCS(=O)(=O)[O-])O[Si]1(O[Si](C)(C)CCC[N+](CCCS(=O)(=O)[O-])(CCCS(=O)(=O)[O-])CCCS(=O)(=O)[O-])n2c3c4ccccc4c2N=C2N=C(N=c4c5ccccc5c(n41)=NC1=NC(=N3)c3ccccc31)c1cccc(OCCCOC(=O)NCCCCCC(=O)ON3C(=O)CCC3=O)c12.[Na+].[Na+].[Na+].[Na+]` (stereo not shown) [IR700, IRDye®700DX N-hydroxysuccinimide ester, reference compound], for which the “cell viability (XTT), controls” value in [1] is “unaffected”. The “caspase activities, controls” value in assay [2] is on record as “no significant elevation of caspase activities”.

B1: scFv-425-SNAP-647: scFv-425-SNAP-tag fusion protein conjugated with BG-Alexa-647 dye, used for flow cytometry and confocal microscopy (conjugate)
scFv: MAQVQLQQSGAELVKPGASVKLSCKASGYTFTSHWMHWVKQRAGQGLEWIGEFNPSNGRTNYNEKFKSKATLTVDKSSSTAYMQLSSLTSEDSAVYYCASRDYDYDGRYFDYWGQGTTVTVSSGGGGSGGGGSGGGGSDIELTQSPAIMSASPGEKVTMTCSASSSVTYMYWYQQKPGSSPRLLIYDTSNLASGVPVRFSGSGSGTSYSLTISRMEAEDAATYYCQQWSSHIFTFGSGTELEIKRMDKDCEMKRTTLDSPLGKLELSGCEQGLHEIKLLGKGTSAADAVEVPAPAAVLGGPEPLMQATAWLNAYFHQPEAIEEFPVPALHHPVFQQESFTRQVLWKLLKVVKFGEVISYQQLAALAGNPAATAAVKTALSGNPVPILIPCHRVVSSSGAVGGYEGGLAVKEWLLAHEGHRLGKP
modifications: left off: small tags and cut ends
On to B1, for which the “labeling of cells (flow cytometry)” value in [3] is “rapid and efficient labeling”. In addition, the “binding/internalization signal (confocal)” value in assay [4] is “no signal was detected”. The “binding, cell membrane staining (confocal)” value in assay [5] (30 min incubation at 4° C.) is listed as “homogeneous cell membrane staining”. Moreover, the “internalization (confocal)” value in assay [5] (max. 2 h of incubation at 37° C.) was “exclusively taken up”.

B2: scFv-425-SNAP-IR700: IR700 photosensitizer (via BG-PEG24 linker) conjugated to anti-EGFR single-chain variable fragment scFv-425 fused to SNAP-tag (conjugate)
scFv: MAQVQLQQSGAELVKPGASVKLSCKASGYTFTSHWMHWVKQRAGQGLEWIGEFNPSNGRTNYNEKFKSKATLTVDKSSSTAYMQLSSLTSEDSAVYYCASRDYDYDGRYFDYWGQGTTVTVSSGGGGSGGGGSGGGGSDIELTQSPAIMSASPGEKVTMTCSASSSVTYMYWYQQKPGSSPRLLIYDTSNLASGVPVRFSGSGSGTSYSLTISRMEAEDAATYYCQQWSSHIFTFGSGTELEIKRMDKDCEMKRTTLDSPLGKLELSGCEQGLHEIKLLGKGTSAADAVEVPAPAAVLGGPEPLMQATAWLNAYFHQPEAIEEFPVPALHHPVFQQESFTRQVLWKLLKVVKFGEVISYQQLAALAGNPAATAAVKTALSGNPVPILIPCHRVVSSSGAVGGYEGGLAVKEWLLAHEGHRLGKP
modifications: left off: small tags and cut ends
notes: IR700 photosensitizer (via BG-PEG24 linker) conjugated to anti-EGFR single-chain variable fragment scFv-425 fused to SNAP-tag
As for B2, the “cell viability (XTT)” value in assay [6] is “no significant reduction in cell viability”. Moreover, the “viability of EGFR+ cells (XTT)” value in assay [7] is “reduced significantly in a concentration-dependent manner”. Besides, the “cell viability (XTT) without light” value in [1] (without any light treatment) is given as “no toxic effects”. Moreover, the “caspase-3 and caspase-7 activities (apoptosis)” value in [8] is listed as “did not have a negative impact”; in assay [9], “triggers apoptosis”.
